Source: paper PMC10333884, “Large‐scale phosphomimetic screening identifies phospho‐modulated motif‐based protein interactions” (Molecular Systems Biology, 2023)
Several values for one entry are separate records, joined by “and”; a condition that tells them apart may be missing. Equal values may be shown once.

How the values were obtained:
[1] = molecular target: KPNA4 ARM ARM domain (UniProt O00629); test: FP displacement, major-pocket FITC probe; settings: reference: unphosphorylated peptide
[2] = molecular target: Clathrin N-terminal domain (NTD) (human) (UniProt Q00610); test: fluorescence polarisation; displacement of a FITC-labelled probe peptide (5 nM in the measurement) from the protein domain (1-2 fold over the probe's KD) by a dilution series of unlabelled peptide; room temperature; 50 mM sodium phosphate pH 7.4; KD calculated from the displacement curve; for KPNA4 ARM one probe for each pocket
Clathrin N-terminal domain (NTD) (human), sequence (Q00610 1-364): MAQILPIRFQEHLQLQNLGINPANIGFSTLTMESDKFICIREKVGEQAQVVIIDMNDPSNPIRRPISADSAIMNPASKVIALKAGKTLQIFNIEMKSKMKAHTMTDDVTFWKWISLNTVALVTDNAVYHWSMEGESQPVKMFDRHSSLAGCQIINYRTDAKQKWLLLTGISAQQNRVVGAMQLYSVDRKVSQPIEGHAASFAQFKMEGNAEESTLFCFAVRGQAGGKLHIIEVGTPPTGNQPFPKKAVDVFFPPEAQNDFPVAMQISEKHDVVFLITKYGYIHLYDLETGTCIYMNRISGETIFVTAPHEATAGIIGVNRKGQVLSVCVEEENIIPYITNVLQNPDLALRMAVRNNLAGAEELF

[3] = molecular target: GABARAPL2 (human) (UniProt P60520); test: as above
GABARAPL2 (human), sequence (P60520 whole entry, the tested form may be a part): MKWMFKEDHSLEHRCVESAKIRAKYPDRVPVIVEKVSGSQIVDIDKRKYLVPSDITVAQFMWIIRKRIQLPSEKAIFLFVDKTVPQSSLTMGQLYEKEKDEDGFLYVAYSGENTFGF

[4] = molecular target: MAP1LC3B (human) (UniProt Q9GZQ8); test: as above
[5] = molecular target: 14‐3‐3 theta (UniProt P27348); test: FP displacement of FITC probe peptide; settings: reference: unphosphorylated peptide; sites S375
[6] = molecular target: MAP1LC3A (human); test: fluorescence polarisation; displacement of a FITC-labelled probe peptide (5 nM in the measurement) from the protein domain (1-2 fold over the probe's KD) by a dilution series of unlabelled peptide; room temperature; 50 mM sodium phosphate pH 7.4; KD calculated from the displacement curve; for KPNA4 ARM one probe for each pocket
[7] = molecular target: KPNA4 ARM ARM domain (UniProt O00629); test: FP displacement, minor-pocket FITC probe; settings: reference: unphosphorylated peptide
[8] = molecular target: GABARAPL2 (human) (UniProt P60520); test: fluorescence polarisation
[9] = molecular target: Clathrin N-terminal domain (NTD) (human) (UniProt Q00610); test: ITC; iTC200; peptide titrated against the protein domain in approximately 10-fold excess, 16 injections; 50 mM sodium phosphate buffer pH 7.4, 1 mM DTT; constants of single runs and their average
[10] = molecular target: GGA1 VHS domain (human) (UniProt Q9UJY5); test: as above
GGA1 VHS domain (human), sequence (Q9UJY5 17-147): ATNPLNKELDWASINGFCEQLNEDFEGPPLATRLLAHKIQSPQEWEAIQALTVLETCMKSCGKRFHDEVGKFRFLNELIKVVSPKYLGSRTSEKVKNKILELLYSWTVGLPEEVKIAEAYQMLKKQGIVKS

[11] = molecular target: MAP1LC3B ATG8 (human); test: as above
[12] = molecular target: Clathrin N-terminal domain (NTD) (human) (UniProt Q00610); test: fluorescence polarisation; displacement of a FITC-labelled probe peptide (5 nM in the measurement) from the protein domain (1-2 fold over the probe's KD) by a dilution series of unlabelled peptide; room temperature; 50 mM sodium phosphate pH 7.4; KD calculated from the displacement curve; for KPNA4 ARM one probe for each pocket; remark: listed apart in the source
[13] = molecular target: Clathrin N-terminal domain (NTD) (human) (UniProt Q00610); test: ITC; peptide titrated against protein domain in about 10-fold excess, 16 injections; 50 mM sodium phosphate pH 7.4, 1 mM DTT
[14] = molecular target: Clathrin N-terminal domain (NTD) (human) (UniProt Q00610); test: fluorescence polarisation

**Q.** For “CDC25A 114-125 (from UniProt P30304) pS116 peptide”, which KD ([1]; sites S116) is on record?
**A.** stronger; reference 8.8 ± 0.2

**Q.** “pS839 HURP_(826–846) peptide (from UniProt Q15398 826-846)” was tested. Which Kd [2] did it give?
**A.** < 3 µM

**Q.** Which results are given for “TBK1_(164–179), wild‐type (from UniProt Q9UHD2 164-179) (peptide)”?
**A.** Kd [3]: 19 µM; Kd [4]: 10.5 µM

**Q.** “TOM1 366-382 (from UniProt O60784) pS375 peptide” was tested. Which “binding against the reference” value [5] did it give?
**A.** gained

**Q.** “TPD52L2_(91–106), phosphomimetic (E) (from UniProt O43399 91-106) (peptide)” was tested. Which Kd [4] did it give?
**A.** 225 µM

**Q.** What about the Kd [6] of the same substance?
**A.** 78 µM

**Q.** How did the Kd [2] turn out when “GTSE1_(692–707) peptide, unphosphorylated” was run?
**A.** 100 µM

**Q.** How did the KD ([7]; sites S125) turn out when “RANBP3 114-129 (from UniProt Q9H6Z4) pS125 peptide (p+6)” was run?
**A.** stronger; reference 68 ± 4

**Q.** What about the KD ([1]; sites S125) of the same substance?
**A.** same; reference 0.15 ± 0.01

**Q.** Which Kd [4] does the source give for “ATG4C_(444–458), wild‐type (from UniProt Q96DT6 444-458) (peptide)” here?
**A.** 7.1 µM

**Q.** What about the Kd [6] of the same substance?
**A.** 5.2 µM

**Q.** What about the Kd [8] of the same substance?
**A.** 0.8 µM

**Q.** For “HURP 832-846 peptide, phosphomimetic (S839 to glutamate) (from UniProt Q15398 832-846)”, which stoichiometry N [9] is on record?
**A.** 0.552 and 0.557 and 0.458

**Q.** Which Kd [3] does the source give for “TBK1_(164–179), phosphorylated (pS) (from UniProt Q9UHD2 164-179) (peptide)” here?
**A.** 2.8 µM

**Q.** For “SQSTM1 258-272 (from UniProt Q13501) phosphorylated peptide”, which KD ([7]; sites S266) is on record?
**A.** weaker; reference 14.0 ± 0.7

**Q.** And the KD ([1]; sites S266)?
**A.** weaker; reference 0.24 ± 0.04

**Q.** Which results are given for “TBK1_(164–179), phosphomimetic (E) (from UniProt Q9UHD2 164-179) (peptide)”?
**A.** Kd [3]: 12.4 µM; Kd [4]: 2.1 µM

**Q.** “RNF11 6-21 peptide, phosphomimetic (from UniProt Q9Y3C5 6-21)” was tested. Which stoichiometry N [10] did it give?
**A.** 0.97 and 0.905

**Q.** With “RNF11 6-21 peptide, phosphorylated (from UniProt Q9Y3C5 6-21)” as the substance, how does the stoichiometry N [10] read?
**A.** 0.722 and 0.731

**Q.** With “RANBP3 114-129 (from UniProt Q9H6Z4) pT124 peptide (p+5)” as the substance, how does the KD ([1]; sites T124) read?
**A.** weaker; reference 0.15 ± 0.01

**Q.** How did the Kd [4] turn out when “ATG4C_(444–458), phosphomimetic (E) (from UniProt Q96DT6 444-458) (peptide)” was run?
**A.** 4.6 µM

**Q.** What about the Kd [6] of the same substance?
**A.** 3.1 µM

**Q.** What about the Kd [8] of the same substance?
**A.** 1.8 µM

**Q.** For “TBK1 164-179 peptide, phosphorylated (from UniProt Q9UHD2 164-179)”, which stoichiometry N [11] is on record?
**A.** 1.09 and 1.17 and 0.932

**Q.** Which results are given for “HURP_(832–846), wild‐type (from UniProt Q15398 832-846) (peptide)”?
**A.** Kd [12]: 150 µM; Kd [2]: 134 µM; Kd [13]: 250 µM

**Q.** Which stoichiometry N [10] does the source give for “RNF11 6-21 peptide, wild-type (from UniProt Q9Y3C5 6-21)” here?
**A.** 0.8

**Q.** “HURP_(832–846), phosphomimetic (E) (from UniProt Q15398 832-846) (peptide)” was tested. Which Kd [14] did it give?
**A.** 23 µM

**Q.** Which Kd [2] does the source give for “pS839 HURP_(832–846) (from UniProt Q15398 832-846) (peptide)” here?
**A.** < 3 µM

**Q.** What about the Kd [13] of the same substance?
**A.** 5 µM
